{"source": "paper PMC11448365", "about": "(Genes to Cells, 2023)", "proteins": {"B1": {"name": "Irgb6-WT (wild-type Irgb6) (enzyme, mouse)", "chain": "MAWASSFDAFFKNFKRESKIISEYDITLIMTYIEENKLQKAVSVIEKVLRDIESAPLHIAVTGETGAGKSTFINTLRGVGHEEKGAAPTGAIETTMKRTPYPHPKLPNVTIWDLPGIGTTNFTPQNYLTEMKFGEYDFFIIISATRFKENDAQLAKAIAQMGMNFYFVRTKIDSDLDNEQKFKPKSFNKEEVLKNIKDYCSNHLQESLDSEPPVFLVSNVDISKYDFPKLETKLLQDLPAHKRHVFSLSLQSLTEATINYKRDSLKQKVFLEAMKAGALATIPLGGMISDILENLDETFNLYRSYFGLDDASLENIAQDLNMSVDDFKVHLRFPHLFAEHNDESLEDKLFKYIKHISSVTGGPVAAVTYYRMAYYLQNLFLDTAANDAIALLNSKALFEKKVGPYISEPPEYWEA"}}, "target": "the molecule itself", "test": "mass photometry", "data": [{"protein": "B1", "values": [{"measurement": "stoichiometry N", "result": 2}]}]}
